Experimental data published in patent US20260242478A1 (published 2026).
Where no end group is shown, it is not given here.

B1: Phage-1924 (peptide)
peptide: TEKLCIPEWMCFGM
notes: Clonal phage of the Peptide-180 library, tested as crude supernatant; not shown: fused to the pIII filament protein of the bacteriophage
B2: Phage-1927 (peptide)
peptide: WENWCTPAWMCSHM
notes: as for B1
B3: Phage-1932 (peptide)
peptide: DFKWCTPMWMCEHL
notes: as for B1
B4: Phage-1934 (peptide)
peptide: VSIWCRPAWMCESG
notes: as for B1
B5: Phage-1931 (peptide)
peptide: WDRLCTPAWMCTGF
notes: as for B1
B6: Phage-1923 (peptide)
peptide: VEKWCIPTWMCELS
notes: as for B1
B7: Phage-1935 (peptide)
peptide: VEKLCKPIWMCNWQ
notes: as for B1
B8: Phage-1930 (peptide)
peptide: VQNWCIPAWMCQGM
notes: as for B1
B9: Phage-1925 (peptide)
peptide: TEMWCKPAWMCTGF
notes: as for B1
B10: Phage-1933 (peptide)
peptide: VVQWCIPAWMCAAQ
modifications: cysteine pairing not given here; also: displayed as fusion to phage pIII
notes: as for B1
B11: Phage-1922 (peptide)
peptide: LVNWCIPMWMCEGF
notes: as for B1
B12: Phage-1928 (peptide)
peptide: ELHLCIPRGMCKFR
notes: as for B1
B13: Phage-1926 (peptide)
peptide: FAKWCTPEWMCVGF
notes: as for B1
B14: Phage-1929 (peptide)
peptide: AEKWCIPAWMCEAM
notes: as for B1
B15: Phage-1953 (peptide)
peptide: PVKWCIPTWMCAPV
modifications: cysteine pairing not given here; also: fused to phage pIII (clonal phage display)

target: T1, Anti-PSMA Fab (SEQ ID NOs: 19, 20) (biotinylated (site not stated)); experiment: phage ELISA; biotinylated PSMA Fab on neutravidin plate, clonal phage supernatant, anti-M13 HRP detection;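 further: wells preincubated with PSMA antigen in blocking buffer or with blocking buffer only before clonal phage were added for a short incubation, then bound phage detected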
T1 construct: also called 006 PSMA Fab

| Binder | Phage binding ELISA, Anti-PSMA Fab (SEQ ID NOs: 19, 20) signal |
| --- | --- |
| B1 | 1.99 |
| B2 | 1.98 |
| B3 | 1.97 |
| B4 | 1.97 |
| B5 | 1.97 |
| B6 | 1.99 |
| B7 | 1.96 |
| B8 | 1.98 |
| B9 | 1.99 |
| B10 | 1.97 |
| B11 | 1.99 |
| B12 | 1.98 |
| B13 | 1.99 |
| B14 | 1.98 |

target: T2, Anti-PSMA Fab (SEQ ID NOs: 19, 20); experiment: phage binding ELISA; PSMA Fab on plate pre-incubated with PSMA antigen as competitor, anti-M13 HRP detection;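 further: crude clonal phage supernatants added without washing to wells preincubated with PSMA in blocking buffer, compared with wells receiving blocking buffer only, then bound phage detected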
T2 construct: Biotinylated and captured on neutravidin coated plates in the phage ELISA; also called 006 PSMA Fab
Method: (§1) Clonal phage were harvested as crude supernatants and screened via standard ELISAs. […] Prior to the addition of clonal phage. wells were incubated with blocking buffer and PSMA antigen or blocking buffer alone. Without washing or aspirating, clonal phage supernatants were then added to the wells and incubated for a short time. Wells were then washed followed by detection of bound phage using a horse radish conjugated anti-M13 antibody.

| Binder | Phage binding ELISA, Anti-PSMA Fab signal in the presence of PSMA |
| --- | --- |
| WDKWCIPEWMCESM [Phage-1959] | 0.0718 |
| GEIWCIPPWMCYAP [Phage-1955] | 0.0825 |
| EGIWCTPAWMCMGF [Phage-1961] | 0.0798 |
| LVKWCTPAWMCEFI [Phage-1963] | 0.0856 |
| HEKWCIPEWMCVVT [Phage-1954] | 0.0642 |
| MPKWCTPAWMCAHQ (cysteine pairing not given here; also: displayed as fusion to phage pIII) [Phage-1952] | 0.0835 |
| FAKWCTPVWMCAGL (cysteine pairing not given here; also: displayed as fusion to phage pIII) [Phage-1956] | 0.281 |
| AEHWCIPSWMCAGF (cysteine pairing not given here; also: displayed as fusion to phage pIII) [Phage-1951] | 0.104 |
| LENWCIPAWMCSGF [Phage-1957] | 0.0656 |
| VVKWCLPPWMCTDF [Phage-1962] | 0.0829 |
| B15 | 0.0978 |
| FEKWCIPDWMCQVM [Phage-1960] | 0.0817 |
| DGKWCIPAWMCVDM [Phage-1958] | 0.0672 |

target: T2, Anti-PSMA Fab (SEQ ID NOs: 19, 20); experiment: phage binding ELISA; biotinylated PSMA Fab on neutravidin plate, clonal phage supernatant, anti-M13 HRP detection;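 further: wells were preincubated with blocking buffer either containing PSMA antigen or without it before crude phage supernatant was added, briefly incubated, then washed prior to detection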
Method: as §1

| Binder | Phage binding ELISA, Anti-PSMA Fab (SEQ ID NOs: 19, 20) signal |
| --- | --- |
| WDKWCIPEWMCESM [Phage-1959] | 1.92 |
| GEIWCIPPWMCYAP [Phage-1955] | 1.92 |
| EGIWCTPAWMCMGF [Phage-1961] | 1.91 |
| LVKWCTPAWMCEFI [Phage-1963] | 1.91 |
| HEKWCIPEWMCVVT [Phage-1954] | 1.92 |
| MPKWCTPAWMCAHQ (cysteine pairing not given here; also: displayed as fusion to phage pIII) [Phage-1952] | 1.93 |
| FAKWCTPVWMCAGL (cysteine pairing not given here; also: displayed as fusion to phage pIII) [Phage-1956] | 1.92 |
| AEHWCIPSWMCAGF (cysteine pairing not given here; also: displayed as fusion to phage pIII) [Phage-1951] | 1.93 |
| LENWCIPAWMCSGF [Phage-1957] | 1.92 |
| VVKWCLPPWMCTDF [Phage-1962] | 1.91 |
| B15 | 1.92 |
| FEKWCIPDWMCQVM [Phage-1960] | 1.91 |
| DGKWCIPAWMCVDM [Phage-1958] | 1.92 |

target: T3, Anti-PSMA Fab (SEQ ID NOs: 19, 20); experiment: phage binding ELISA; clonal phage supernatant on biotinylated PSMA Fab captured on neutravidin plate; anti-M13-HRP detection
T3 construct: also called 006 PSMA Fab
Method: as §1

| Binder | Anti-PSMA Fab (SEQ ID NOs: 19, 20) signal |
| --- | --- |
| WINWCTPEWMCMGF [Phage-1947] | 1.94 |
| DIKLCMPEWMCLGF [Phage-1949] | 1.93 |
| VEKWCVPQWMCGQM [Phage-1942] | 1.95 |
| LEKWCIPTWMCELF [Phage-1943] | 1.94 |
| WENWCRPEWMCTGL [Phage-1940] | 1.95 |
| GEKWCIPEWMCTTW [Phage-1941] | 1.95 |
| VEKLCRPSWMCEHM [Phage-1939] | 1.96 |
| FPKWCTPAWMCERS [Phage-1937] | 1.96 |
| WENWCTPRWMCEGF [Phage-1945] | 1.94 |
| TEMWCKPSWMCYGF [Phage-1946] | 1.94 |
| DGKWCIPPWMCQST [Phage-1944] | 1.94 |
| ARRSCVFRRGCVFM [Phage-1950] | 1.93 |
| MDNWCTPSWMCVGF [Phage-1948] | 1.93 |
| WPKWCTPPWMCFQD [Phage-1936] | 1.96 |
| MEKWCIPSWMCDVN [Phage-1938] | 1.96 |

target: T1, Anti-PSMA Fab (SEQ ID NOs: 19, 20); experiment: phage ELISA; biotinylated PSMA Fab on neutravidin plate, wells pre-incubated with PSMA antigen as competitor, anti-M13 HRP detection
Method: as §1

| Binder | Phage binding ELISA, Anti-PSMA Fab signal in the presence of PSMA |
| --- | --- |
| B1 | 0.0644 |
| B2 | 0.1 |
| B3 | 0.106 |
| B4 | 0.0809 |
| B5 | 0.104 |
| B6 | 0.0767 |
| B7 | 0.0992 |
| B8 | 0.0574 |
| B9 | 0.0938 |
| B10 | 0.0955 |
| B11 | 0.107 |
| B12 | 0.0668 |
| B13 | 0.125 |
| B14 | 0.0668 |

target: T3, Anti-PSMA Fab (SEQ ID NOs: 19, 20); experiment: phage binding ELISA; clonal phage supernatant on biotinylated PSMA Fab captured on neutravidin plate, wells pre-incubated with PSMA antigen (competitor: PSMA); anti-M13-HRP detection
Method: as §1

| Binder | Anti-PSMA Fab signal in the presence of PSMA |
| --- | --- |
| WINWCTPEWMCMGF [Phage-1947] | 0.24 |
| DIKLCMPEWMCLGF [Phage-1949] | 0.0792 |
| VEKWCVPQWMCGQM [Phage-1942] | 0.0869 |
| LEKWCIPTWMCELF [Phage-1943] | 0.175 |
| WENWCRPEWMCTGL [Phage-1940] | 0.0907 |
| GEKWCIPEWMCTTW [Phage-1941] | 0.135 |
| VEKLCRPSWMCEHM [Phage-1939] | 0.0564 |
| FPKWCTPAWMCERS [Phage-1937] | 0.0909 |
| WENWCTPRWMCEGF [Phage-1945] | 0.173 |
| TEMWCKPSWMCYGF [Phage-1946] | 0.101 |
| DGKWCIPPWMCQST [Phage-1944] | 0.077 |
| ARRSCVFRRGCVFM [Phage-1950] | 0.0701 |
| MDNWCTPSWMCVGF [Phage-1948] | 0.0794 |
| WPKWCTPPWMCFQD [Phage-1936] | 0.148 |
| MEKWCIPSWMCDVN [Phage-1938] | 0.0785 |
